The values that follow come from patent US20260159579A1 (Pfizer, published 2026).

B1: GDF15_0297 (antibody, mouse IgG1, kappa, V domains shown)
VH: QVQLQQPGAELVKPGASVKMSCKASGYPFEGWYIHWVKQRPGQGLEWMGWNNPRTGLTNHAQKFQGKVTMTRDTSSSTAYMQLSSLTSEDSAVYYCARGVGADAAFDIWGQGTTLTVSS
VL: DIVMTQSPSSLSVSAGEKVTMSCRSSQSLLWKHGYNYLDWYQQKPGQPPKLLIYLDRNRAHGVPDRFTGSGSGTDFTLTISSVQAEDLAVYYCMQSFETPITFGGGTKLEIKR
notes: Tested in bivalent format; also called GDF15_297
B2: GDF15_0301 (antibody, mouse IgG1, kappa, V domains shown)
VH: B1 VH with V68A, M70L, R72V
VL: B1 VL with M4L
notes: Tested in bivalent format; also called GDF15_301; mAB2
B3: GDF15_0470 (antibody, human IgG1, kappa, V domains shown)
VH: QVQLVQSGAEVKKPGASVKVSCKASGYPFEGWYIHWVRQAPGQGLEWMGWNNPRTGLTNHAQKFQGRVTMTRDTSISTAYMELSRLRSDDTAVYYCARGVGADAAFDIWGQGTMVTVSS
VL: EIVLTQSPATLSLSPGERATLSCRSSQSLLWKHGYNYLDWYQQKPGQAPRLLIYLDRNRAHGIPARFSGSGSGTDFTLTISSLEPEDFAVYYCMQSFETPITFGQGTKVEIKR
notes: Tested in bivalent format; also called GDF15-470
B4: GDF15_014 (antibody, human IgG1, kappa, V domains shown)
VH: QVQLVQSGAEVKKPGSSVKVSCKASGYTFSSYNIDWVRQAPGQGLEWMGQINPINGLAFYNQKFQGRVTITADESTSTAYMELSSLRSEDTAVYYCAREAITTVGAMDYWGQGTLVTVSS
VL: EIVLTQSPATLSLSPGERATLSCRTSQNVHNYLAWYQQKPGQAPRLLIYDASNRATGIPARFSGSGSGTDFTLTISSLEPEDFAVYYCQQFWSDPYTFGQGTKVEIKR
notes: Tested in bivalent format
B5: GDF15_017 (antibody, human IgG1, kappa, V domains shown)
VH: B4 VH with S30T, S31D, I54N, T91N
VL: B4 VL with N28S, N31S, S52K, N53T, W92S
notes: Tested in bivalent format
B6: GDF15_013 (antibody, human IgG1, kappa, V domains shown)
VH: B4 VH with S31D, I34M, Q50G, I54N
VL: B4 VL with Q27E, N28S, N31S, S93N, D94W, Y96W
notes: Tested in bivalent format
B7: GDF15_022 (antibody, human IgG1, kappa, V domains shown)
VH: B4 VH with S31D, I54N, A58I, Y60F, A100V
VL: B4 VL with N28S, N31S, S52K, N53T, T56D, W92S
notes: Tested in bivalent format
B8: GDF15_015 (antibody, human IgG1, kappa, V domains shown)
VH: B4 VH with S31D, I34M, I54N, M107T
VL: B4 VL with N31S, R54L, T56D, W92S, S93N, Y96W
notes: Tested in bivalent format
B9: GDF15_003 (antibody, human IgG1, kappa, V domains shown)
VH: B4 VH with S30T, I54N, A100Q
VL: B4 VL with T25A, N28S, V29L, H30S, N31S, S52K, T56D, W92S
notes: Tested in bivalent format
B10: GDF15_020 (antibody, human IgG1, kappa, V domains shown)
VH: B4 VH with S31D, I34M, I54N, F59N
VL: B4 VL with T25A, V29L, N31S, N53T, T56D
notes: Tested in bivalent format
B11: GDF15_021 (antibody, human IgG1, kappa, V domains shown)
VH: B4 VH with Q50G, A58I, Y60F, Y109H
VL: B4 VL with Q27E, N31S, R54L, T56D
notes: Tested in bivalent format
B12: GDF15_004 (antibody, human IgG1, kappa, V domains shown)
VH: B4 VH with I54N, F59N, N61A, V104I
VL: B4 VL with Q27E, N28S, N31S, N53T, T56D
notes: Tested in bivalent format
B13: GDF15_010 (antibody, human IgG1, kappa, V domains shown)
VH: B4 VH with S31D, Q50G, I54N, Y60F
VL: B4 VL with N28S, V29L, N31S, S93N, Y96W
notes: Tested in bivalent format

Positions count from the first letter of the chain named. Values joined by “and” are separate entries in the source; they are usually repeats but may differ in a detail not shown here. Identical values can stand only once.

The target of one assay is T1, Mouse Fc-human GDF15 (Mu IgG1Fc_Fxa_Hu GDF15) (human).
T1 construct: Whole entry is the fusion: mouse IgG1 Fc, FXa site and linker, mature human GDF15; described as dimeric; also called Murine dimeric IgG1 Fc-human GDF-15 with FXa cleavage site; control human GDF15
T1 chain: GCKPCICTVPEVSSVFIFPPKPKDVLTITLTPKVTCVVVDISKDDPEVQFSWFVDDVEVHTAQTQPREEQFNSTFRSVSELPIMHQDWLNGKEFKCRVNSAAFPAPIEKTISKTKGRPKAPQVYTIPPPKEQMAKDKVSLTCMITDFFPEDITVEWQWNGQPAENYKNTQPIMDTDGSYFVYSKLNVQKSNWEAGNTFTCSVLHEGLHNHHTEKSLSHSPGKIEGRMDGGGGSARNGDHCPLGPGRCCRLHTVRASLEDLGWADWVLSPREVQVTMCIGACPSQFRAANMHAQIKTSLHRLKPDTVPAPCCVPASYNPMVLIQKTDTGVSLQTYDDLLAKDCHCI
The assay can be described thus: SPR BIAcore T200, 37C; Fc-GDF15 captured, IgG as analyte. How it is done: (§1) Mouse Fc-human GDF15 (Mu IgG1Fc_Fxa_Hu GDF15; SEQ ID NO:2), Mouse Fc-mouse GDF15 (Mu IgG1Fc_Fxa_Mu GDF15; SEQ ID NO:5) and Mouse Fc-cynomolgus monkey GDF15 (Mu IgG1Fc_Fxa_Cyno GDF15; SEQ ID NO:4) were captured onto three different flow cells of a CM4 sensorchip (catalogue number BR100534, GE Healthcare) surface using the Mouse Antibody Capture Kit (BR100838, GE Healthcare) according to the manufacturer's protocol. The running and sample bufferwas 10 mM HEPES pH 7.4, 0.15M NaCl, 3 mM EDTA, 0.05% P-20 (HBS-EP+). The final capture levels of Mu IgG1Fc_Fxa_Hu GDF15, Mu IgG1Fc_Fxa_Mu GDF15 and Mu IgG1Fc_Fxa_Cyno GDF15 were 40 resonance units (RU), 32 RU and 25 RU respectively. Flow cell 1 was used as a reference flow cell. […] The dissociation was monitored for 2.8 hours and the surface was regenerated with 10 mM Glycine pH 1.7. Binding affinities and rate constants were determined for murine and cynomolgus monkey GDF15 by fitting the resulting sensorgram data to a 1:1 Langmuir model in BIAcore T200 Evaluation software version 2.0 (GE Healthcare).
(§2) Additionally, the binding of clone GDF15_001 to cynomolgus monkey and mouse GDF15 was measured using above mentioned BIAcore assay (Table 7).
For orientation: Surface plasmon resonance follows binding to a sensor surface in real time, without labels.
What is called Kd is the free concentration of one partner at which half of the binding sites on the other are occupied at equilibrium, for simple one-to-one binding. Read a low Kd as a tighter complex. As a reminder, the koff is the first-order rate constant of dissociation. A lower koff goes with a long-lived complex. The kon is a measure of how fast the partners come together. Turning to B1, the Kd was < 0.01 nM; the T½ min is 1060 min and 895 min; the koff is 1.09e-05 s⁻¹ and 1.29e-05 s⁻¹; the kon is 5.54e+06 M⁻¹ s⁻¹ and 5.5e+06 M⁻¹ s⁻¹.

Consider B2, for which the Kd was < 0.01 nM; the kon is 3.36e+06 M⁻¹ s⁻¹ and 5.58e+06 M⁻¹ s⁻¹ and 5.22e+06 M⁻¹ s⁻¹.

Take B3: the Kd was < 0.01 nM; the T½ min is 222 min and 268 min; the koff is 5.21e-05 s⁻¹ and 4.3e-05 s⁻¹; the kon is 1.2e+07 M⁻¹ s⁻¹ and 1.3e+07 M⁻¹ s⁻¹.

In the case of B4, the Kd is < 0.01 nM; the T½ min was 645 min and 780 min; the koff is 1.79e-05 s⁻¹ and 1.48e-05 s⁻¹; the kon is 1.88e+06 M⁻¹ s⁻¹ and 1.9e+06 M⁻¹ s⁻¹.

Consider B5, for which the Kd is 0.0267 nM and 0.043 nM; the T½ min was 141 min and 133 min; the koff was 8.18e-05 s⁻¹ and 8.66e-05 s⁻¹; the kon is 1.9e+06 M⁻¹ s⁻¹ and 3.24e+06 M⁻¹ s⁻¹.

As for B6, the Kd is 0.0275 nM and 0.0103 nM; the T½ min is 173 min and 154 min; the koff was 6.66e-05 s⁻¹ and 7.51e-05 s⁻¹.

In the case of B7, the Kd is 0.0132 nM and 0.0179 nM; the T½ min is 654 min and 795 min; the koff is 1.77e-05 s⁻¹ and 1.45e-05 s⁻¹; the kon was 1.34e+06 M⁻¹ s⁻¹ and 813000 M⁻¹ s⁻¹.

For the molecule B8, the Kd is 0.0594 nM and 0.0573 nM; the T½ min was 116 min and 112 min; the koff is 9.93e-05 s⁻¹ and 0.000104 s⁻¹; the kon was 1.67e+06 M⁻¹ s⁻¹ and 1.81e+06 M⁻¹ s⁻¹.

On to B9, for which the Kd is 0.0274 nM and 0.0268 nM; the T½ min is 160 min and 126 min; the koff is 7.22e-05 s⁻¹ and 9.19e-05 s⁻¹; the kon was 2.64e+06 M⁻¹ s⁻¹ and 3.43e+06 M⁻¹ s⁻¹.

Regarding B10, the Kd was 0.0974 nM and 0.165 nM; the T½ min is 122 min and 102 min; the koff was 9.46e-05 s⁻¹ and 0.000113 s⁻¹; the kon was 972000 M⁻¹ s⁻¹ and 686000 M⁻¹ s⁻¹.

B11: the Kd was 0.142 nM and 0.165 nM; the T½ min is 39.6 min and 32.8 min; the off-rate (koff) was 0.000291 s⁻¹ and 0.000352 s⁻¹; the kon was 2.05e+06 M⁻¹ s⁻¹ and 2.14e+06 M⁻¹ s⁻¹.

On to B12, for which the Kd was 0.0322 nM and 0.0419 nM; the T½ min was 162 min and 141 min; the koff was 7.14e-05 s⁻¹ and 8.2e-05 s⁻¹; the kon is 2.22e+06 M⁻¹ s⁻¹ and 1.96e+06 M⁻¹ s⁻¹.

With B13, the Kd is 0.0113 nM and 0.0201 nM; the T½ min is 784 min and 649 min; the koff was 1.47e-05 s⁻¹ and 1.78e-05 s⁻¹; the kon is 1.31e+06 M⁻¹ s⁻¹ and 885000 M⁻¹ s⁻¹.

The target in a further assay is T1, Mouse Fc-human GDF15 (Mu IgG1Fc_Fxa_Hu …). The assay can be described thus: SPR BIAcore T200, 37C; Fc-GDF15 captured, IgG as analyte; average of runs. The method, then: as §1, §2
Consider B1, for which the Kd is < 0.01 nM, the koff amounted to 1.19e-05 s⁻¹ and the kon amounted to 5.52e+06 M⁻¹ s⁻¹.

In the case of B2, the Kd is < 0.01 nM, the koff was 6.97e-06 s⁻¹ and the kon is 4.72e+06 M⁻¹ s⁻¹.

Consider B3, for which the Kd is < 0.01 nM, the koff is 4.76e-05 s⁻¹ and the kon turned out to be 1.25e+07 M⁻¹ s⁻¹.

Regarding B4, the Kd was < 0.01 nM, the koff is 1.64e-05 s⁻¹ and the kon came out at 1.89e+06 M⁻¹ s⁻¹.

As to B5, the Kd was 0.0349 nM, the koff was 8.42e-05 s⁻¹ and the kon worked out at 2.57e+06 M⁻¹ s⁻¹.

B6: the Kd turned out to be 0.018 nM, the koff is 7.08e-05 s⁻¹ and the kon amounted to 4.86e+06 M⁻¹ s⁻¹.

B7 had a Kd of 0.0156 nM, a koff of 1.61e-05 s⁻¹ and a kon of 1.08e+06 M⁻¹ s⁻¹.

For the molecule B8, the affinity, expressed as Kd, was 0.0584 nM; the koff worked out at 0.000101 s⁻¹; the kon was 1.74e+06 M⁻¹ s⁻¹.

Molecule B9 yielded a Kd of 0.0271 nM, a koff of 8.2e-05 s⁻¹ and a kon of 3.03e+06 M⁻¹ s⁻¹.

With B10, the Kd came to 0.131 nM, the koff amounted to 0.000104 s⁻¹ and the kon was 829000 M⁻¹ s⁻¹.

Molecule B11 registered a Kd of 0.153 nM, a koff of 0.000322 s⁻¹ and a kon of 2.09e+06 M⁻¹ s⁻¹.

Molecule B12 came in with a Kd of 0.037 nM, a koff of 7.67e-05 s⁻¹ and a kon of 2.09e+06 M⁻¹ s⁻¹.

Regarding B13, the Kd amounted to 0.0157 nM, the koff was 1.63e-05 s⁻¹ and the kon was found to be 1.1e+06 M⁻¹ s⁻¹.

The target is the same in a further assay. The assay is described as follows: SPR BIAcore T200; summary sentence for the clones of Table 6. How it is done: as §1, §2
B1: the Kd is < 0.15 nM.

For B2, the Kd is < 0.15 nM.

With B3, the Kd is < 0.15 nM.

For the molecule B7, the Kd is < 0.15 nM.

On to B10, for which the Kd was < 0.15 nM.

B11: the Kd is < 0.15 nM.
